Measurements taken from patent publication US20250243281A1.

Columns and labels:
BSA (bovine) = BSA (bovine) (UniProt P02769); experiment: polyspecificity ELISA, BSA-blocked control wells, 100 nM antibody
human insulin (human) = human insulin (human) (UniProt P01308); experiment: polyspecificity ELISA, coated insulin, 100 nM antibody
FcRn = FcRn (UniProt P55899); experiment: BLI Octet, biotinylated FcRn on streptavidin sensor, pH 5.0, global 1:1 fit
FcRn, sequence (P55899 24-297 limits assumed, form in doubt, chain 1 of 2): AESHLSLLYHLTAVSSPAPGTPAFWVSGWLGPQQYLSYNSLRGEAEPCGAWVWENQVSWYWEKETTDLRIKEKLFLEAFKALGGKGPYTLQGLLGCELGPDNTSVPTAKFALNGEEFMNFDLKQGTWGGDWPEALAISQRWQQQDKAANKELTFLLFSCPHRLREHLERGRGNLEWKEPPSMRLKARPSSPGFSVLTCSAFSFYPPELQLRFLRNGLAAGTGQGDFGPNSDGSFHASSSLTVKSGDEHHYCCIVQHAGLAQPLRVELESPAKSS
FcRn, sequence (chain, as listed by the source limits assumed, form in doubt, chain 2 of 2): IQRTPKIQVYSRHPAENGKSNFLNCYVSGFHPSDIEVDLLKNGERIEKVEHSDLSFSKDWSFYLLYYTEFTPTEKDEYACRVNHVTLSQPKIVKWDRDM

human insulin (human), sequence (P01308 25-54 limits assumed, chain 1 of 2): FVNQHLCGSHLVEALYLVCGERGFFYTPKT
human insulin (human), sequence (P01308 90-110 limits assumed, chain 2 of 2): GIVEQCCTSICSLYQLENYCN
BSA (bovine), sequence (P02769 25-607 limits assumed): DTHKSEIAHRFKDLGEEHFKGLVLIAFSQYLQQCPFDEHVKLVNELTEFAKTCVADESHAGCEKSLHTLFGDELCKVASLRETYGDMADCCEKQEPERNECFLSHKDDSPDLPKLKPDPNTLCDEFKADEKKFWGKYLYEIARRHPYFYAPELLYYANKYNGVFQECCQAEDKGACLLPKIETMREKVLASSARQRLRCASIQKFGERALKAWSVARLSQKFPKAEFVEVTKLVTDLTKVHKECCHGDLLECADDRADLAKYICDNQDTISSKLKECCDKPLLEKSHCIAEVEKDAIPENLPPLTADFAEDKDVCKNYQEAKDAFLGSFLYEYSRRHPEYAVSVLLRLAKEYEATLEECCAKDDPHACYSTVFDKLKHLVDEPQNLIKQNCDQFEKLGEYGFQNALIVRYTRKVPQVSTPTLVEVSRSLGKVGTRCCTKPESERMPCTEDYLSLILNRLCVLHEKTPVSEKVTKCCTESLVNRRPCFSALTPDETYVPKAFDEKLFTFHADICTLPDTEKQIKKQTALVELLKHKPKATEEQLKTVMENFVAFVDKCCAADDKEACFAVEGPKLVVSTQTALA

Row | Substance | A450 nm (BSA (bovine)) | A450 nm (human insulin (human)) | Norm (signal over AdalimumAb) (human insulin (human)) [fold] | Kd (FcRn) [nM]
1 | Ustekinumab (antibody) | 0.1 | 0.16 | 2.29 | –
2 | wild type human IgG1 antibody | – | – | – | 0.13
